The values below come from patent publication US20220127304A1.

One assay deals with human IgG1 (human). Kind of assay: SPR, Biacore X-100, human IgG1 on the chip, single cycle kinetics. (Surface plasmon resonance follows binding to a sensor surface in real time, without labels.)
For assay [1], the target named is human serum-derived IgG polyclonal antibody (WAKO) (human). The assay is described as follows: affinity column breakthrough, scFv immobilized on HiTrap NHS-activated HP; average of Reference Examples 1-1 and 1-2.
The target is the same in assay [2]. Kind of assay: affinity column breakthrough, scFv immobilized on HiTrap NHS-activated HP.
The target is the same in assay [3]. Kind of assay: affinity column breakthrough, scFv immobilized on HiTrap NHS-activated HP (33.6 mg).

B1: single-chain antibody R3-26 (scFv)
scFv: QEQLVESGGGLVKPGGTLTLTCTVSGIDLSSYAMSWVRQVPGKGLEWIGIIGSGGGTAYANWAKGRFTISKTSSTTVDLKMTSLTTEDTATYFCATDYGIYGYAYGHLWGPGTLVTVTSGGGGSGGGGSGGGGSELVMTQTASPVSAAVGGTVTIKCQASQSISTALAWYQQRPGQPPKLLIYDASTLASGVSSRFKGSGSGTEFTLTISDLECADAATYYCQTYFGSDTDNAFGEGTEVEITGSAAALEHHHHHH
The Kd is the constant that tells how readily two partners part at equilibrium. A low value points to higher affinity. The koff is the rate constant with which the complex falls apart. By kon is commonly meant the rate constant with which the complex forms. Low values mean slow association, high ones fast association. For B1, in the assay with human IgG1 (human), the Kd is 2.1 nM, the koff was found to be 4.3e-05 s⁻¹ and the kon was 21000 M⁻¹ s⁻¹. Also, the [10% DBC (mg/mL) at flow rate of 1.0 mL/min]/[amount of protein immobilized on column (mg)] in assay [1] is 0.736 (mg/mL)/mg.

B2: R3-26 repCK+K (scFv)
scFv: QEQLVESGGGLVTPGGTLTLTCTVSGIDLSSYAMSWVRQVPGEGLEWIGIIGSGGGTAYANWARGRFTISRTSSTTVDLRMTSLTTEDTATYFCATDYGIYGYAYGHLWGPGTLVTVTSGGGGSGGGGSGGGGSELVMTQTASPVSAAVGGTVTINCQASQSISTALAWYQQRPGQPPRLLIYDASTLASGVSSRFSGSGSGTEFTLTISDLESADAATYYCQTYFGSDTDNAFGEGTEVEITGSAAAGGGGSKIEHHHHHH
In the assay with human IgG1 (human), B2 yielded a Kd of 1.6 nM, a koff of 9.1e-05 s⁻¹ and a kon of 56000 M⁻¹ s⁻¹. Also, the [10% DBC (mg/mL) at flow rate of 1.0 mL/min]/[amount of protein immobilized on column (mg)] in assay [2] is 0.625 (mg/mL)/mg.

B3: R3-26 repCK+ori6K (scFv)
scFv: QEQLVESGGGLVKPGGTLTLTCTVSGIDLSSYAMSWVRQVPGKGLEWIGIIGSGGGTAYANWARGRFTISRTSSTTVDLRMTSLTTEDTATYFCATDYGIYGYAYGHLWGPGTLVTVTKGGGGSGGGGSGGGGSELVMTQTASPVSAKVGGTVTINCQASQSISTALAWYQQKPGQPPRLLIYDASTLASGVSSRFSGSGSGTEFTLTISDLESADAATYYCQTYFGSDTDNAFGEGTEVEIKGSAAALEHHHHHH
In the assay with human IgG1 (human), B3 gave a Kd of 0.79 nM, a koff of 6.2e-05 s⁻¹ and a kon of 79000 M⁻¹ s⁻¹. In assay [3], the [10% DBC (mg/mL) at flow rate of 1.0 mL/min]/[amount of protein immobilized on column (mg)] was 0.777 (mg/mL)/mg.

B4: R3-26 repCK+ori6K+VH4KVL4K (scFv)
scFv: QEQLVESGGGLVKPGGTLTLTCTVSGIDLSSYAMSWVRQVPGKGLEWIGIIGSGGGTAYANWARGRFTISRTSSTTVDLRMTSLTTEDTATYFCATDYGIYGYAYGHLWGPGTLVTVTKKKKKGGGGSGGGGSGGGGSELVMTQTASPVSAKVGGTVTINCQASQSISTALAWYQQKPGQPPRLLIYDASTLASGVSSRFSGSGSGTEFTLTISDLESADAATYYCQTYFGSDTDNAFGEGTEVEIKKKKKGSAAALEHHHHHH
In the assay with human IgG1 (human), B4 came in with a Kd of 0.053 nM, a koff of 1.6e-05 s⁻¹ and a kon of 300000 M⁻¹ s⁻¹.
